Consider 25 substances from article PMC3888415.

Read-outs that look alike come from different tables or passages of the source.

The target in experiment [1] is human α-thrombin (human). Nature of the experiment: discontinuous thrombin inhibition assay (second order rate constant k2); pseudo first order conditions; purified API proteins and thrombin; mean ± SD of 5 determinations.
The target in experiment [2] is human α-thrombin (human). Nature of the experiment: ELISA; thrombin capture assay: thrombin (5 µg/ml) coated on microtiter wells in PBS; cleared bacterial lysates applied neat for one hour; detected with HRP-conjugated sheep anti-human API; OD 450 nm, for P7–P3 variants normalized to API M358R lysate. For orientation: An ELISA detects its analyte on a solid surface through an enzyme-linked reagent.

The target of experiment [3] is human α-thrombin (human). The experiment is described as above. The source holds these as a separate data set.

As to “API M358R P7–P3 variant AAFVS (from UniProt P01009 25-418)”, the k2 (second order rate constant of thrombin inhibition) (mol^−1 sec^−1) in experiment [1] amounted to 1.01e+06. The relative OD450 versus API M358R in experiment [2] came out at 3.01.

In experiment [2], “API M358R P7–P3 variant DAFAA (from UniProt P01009 25-418)” yielded a relative OD450 versus API M358R of 1.59.

For “API M358R P7–P3 variant DITMA (from UniProt P01009 25-418)”, the k2 (second order rate constant of thrombin inhibition) (mol^−1 sec^−1) in experiment [1] is 1e+06. Besides, the relative OD450 versus API M358R in experiment [2] was 1.64; in experiment [3], 1.7.

Take “API M358R P7–P3 variant DLTVS (plaque consensus) (from UniProt P01009 25-418)”: the k2 (second order rate constant of thrombin inhibition) (mol^−1 sec^−1) in experiment [1] was 529000.

In the case of “API M358R P7–P3 variant DVTVS (from UniProt P01009 25-418)”, the relative OD450 versus API M358R in experiment [2] was 1.42.

For the substance “API M358R P7–P3 variant EAHFR (from UniProt P01009 25-418)”, the relative OD450 versus API M358R in experiment [2] amounted to 1.51.

In turn, “API M358R P7–P3 variant EATVS (from UniProt P01009 25-418)” gave a k2 (second order rate constant of thrombin inhibition) (mol^−1 sec^−1) in experiment [1] of 617000. Also, the relative OD450 versus API M358R in experiment [2] is 1.54.

Substance “API M358R P7–P3 variant EISLQ (from UniProt P01009 25-418)” displayed a k2 (second order rate constant of thrombin inhibition) (mol^−1 sec^−1) in experiment [1] of 783000. In experiment [2], this substance gave a relative OD450 versus API M358R of 2.61.

Regarding “API M358R P7–P3 variant FHTLG (from UniProt P01009 25-418)”, the relative OD450 versus API M358R in experiment [2] turned out to be 2.13.

Consider “API M358R P7–P3 variant HATVS (from UniProt P01009 25-418)”, for which the k2 (second order rate constant of thrombin inhibition) (mol^−1 sec^−1) in experiment [1] came out at 504000. Further, the relative OD450 versus API M358R in experiment [2] turned out to be 1.99.

As to “API M358R P7–P3 variant ISSAN (from UniProt P01009 25-418)”, the relative OD450 versus API M358R in experiment [2] was 1.46.

“API M358R P7–P3 variant LAITS (from UniProt P01009 25-418)” had a relative OD450 versus API M358R in experiment [2] of 1.45.

Substance “API M358R P7–P3 variant LASMR (from UniProt P01009 25-418)” yielded a k2 (second order rate constant of thrombin inhibition) (mol^−1 sec^−1) in experiment [1] of 895000. Moreover, in experiment [2], the relative OD450 versus API M358R was determined as 1.89.

As to “API M358R P7–P3 variant LATVS (lysate consensus) (from UniProt P01009 25-418)”, in experiment [1], the k2 (second order rate constant of thrombin inhibition) (mol^−1 sec^−1) was found to be 765000. Besides, the relative OD450 versus API M358R in experiment [3] came to 1.5.

As to “API M358R P7–P3 variant LHTLG (from UniProt P01009 25-418)”, the k2 (second order rate constant of thrombin inhibition) (mol^−1 sec^−1) in experiment [1] worked out at 786000. Further, the relative OD450 versus API M358R in experiment [3] stood at 2.1.

Regarding “API M358R P7–P3 variant LINPI (from UniProt P01009 25-418)”, in experiment [2], the relative OD450 versus API M358R came out at 1.54.

The substance “API M358R P7–P3 variant LSELA (from UniProt P01009 25-418)” yielded a relative OD450 versus API M358R in experiment [2] of 1.28.

The substance “API M358R P7–P3 variant LTTLR (from UniProt P01009 25-418)” came in with a k2 (second order rate constant of thrombin inhibition) (mol^−1 sec^−1) in experiment [1] of 896000. The relative OD450 versus API M358R in experiment [2] worked out at 2.09.

With “API M358R P7–P3 variant NLIPT (from UniProt P01009 25-418)”, the k2 (second order rate constant of thrombin inhibition) (mol^−1 sec^−1) in experiment [1] is 176000.

Take “API M358R P7–P3 variant QATFL (from UniProt P01009 25-418)”: the k2 (second order rate constant of thrombin inhibition) (mol^−1 sec^−1) in experiment [1] was 593000. Moreover, the relative OD450 versus API M358R in experiment [2] stood at 1.91.

As for “API M358R P7–P3 variant QVKPA (from UniProt P01009 25-418)”, the relative OD450 versus API M358R in experiment [2] was 1.37.

The substance “API M358R P7–P3 variant TLSAV (from UniProt P01009 25-418)” registered a relative OD450 versus API M358R in experiment [2] of 1.36.

For “API M358R P7–P3 variant TVSVS (from UniProt P01009 25-418)”, the relative OD450 versus API M358R in experiment [2] is 1.49.

With “API M358R P7–P3 variant VTTIT (from UniProt P01009 25-418)”, in experiment [2], the relative OD450 versus API M358R was 1.9.

“recombinant hexahistidine-tagged API M358R (from UniProt P01009 25-418) (natural protein)” yielded a k2 (second order rate constant of thrombin inhibition) (mol^−1 sec^−1) in experiment [1] of 487000.
